Source: the DeepSol protein solubility set

Test: soluble on expression in E. coli; label from the status in PepcDB or PDB records

Row | Sequence | soluble on expression in E. coli
1 | MGSDKIHHHHHHMTDNQLLMQEALEWKMHFLRKDSMFERFSKRVQTKVNERIPEKIHTVVTESVKKMVEATMAGSNIITYKKDTSALSLSEKNELAKKTIVSYQKVAAAEGVGTGAGGIFLSIADFPLLLSIKMKCLFTLSSIYGFDVKDAQERIFLLLVFQLAFSSDDGRKSLFSVIENWETEKKSIDWRVFQQEYRDYIDVVKLFQLLPGVGAAVGGIANYKLLAQLGETARHVFHLRILKETAGE | not soluble
2 | MGSDKIHHHHHHVKFRVDRDAFADAVTWTARALPARPAVPVLAGMRLEVADTASDTLRLSGFDYEVSAQASVDVHAEEAGSVLVPGRLLAEIVRTLPPHPVEFHVEGSRALLTCGNARFTLLTLPLEDYPTLPAMPRTIGSAPADVFATAVRQVLPSTSRDDTLPMLTGVHLTFRGDTILLAATDRYRIAVREMWWKPEEVDIDTSALVPARTLGDFSRSLTGGNVDIALSTSDSRGAGEGMIGFEHDGKRTTTRLIDSDFVSYESRFPTEFAAQADVPVAPLAEAVKRVALVADRSTPVRLSFTSSEVVLEAGSGDDAQALEALEVNFEGEPMRIAFNPQYFLDGLTNVETERAFLRFVAPTRPAVITGTPAKEGGKPDFRYLVMPLRLA | not soluble
3 | MSLKITIYDLAELSGVSASAVSAILNGNWKKRRISAKLAEKVTRIAEEQGYAINRQASMLRSKKSHVIGMIIPKYDNRYFGSIAERFEEMARERGLLPIITCTRRRPELEIEAVKAMLSWQVDWVVATGATNPDKISALCQQAGVPTVNLDLPGSLSPSVISDNYGGAKALTHKILANSARRRGELAPLTFIGGRSSDHNTSERLRGFHDAHRELGLSVPQANILAPGYSKGHVEDCLQERFGSAKTLLQGIFVNSTISLEGVVRWLSQVGLTGSEQPPMGCFDWDPFVYLLGHDIDMVQQDVPAMLDAVFSIIDAGEASQQRIEIPPRLMSSSEGHHHHHH | soluble
4 | MRTPIALSLALCLSLFPSFASAEEAAPEGEGANKPVYVDLTPALVGNYGSGPRLQYYKADIALQVADKDAATKVEHHEPLIRNQLIMLFAQQTDQSLGTVEAKESLRQEALKQVQQTLEQEEGKPLVTDLLFNNLIVQP | not soluble
5 | MKAVTFPVPWEYLKRIFEGKNVFVKPATLRVEEGMKVIFYASRENQGWHGEAEVERVEYYTSVEEIIKKYRDKLFLTPEELRRYERDRARWDSGRRKRPWMVLVLRNIEKYPRVVKPKKFIVVSGRYVDEKEYEEIRRSTSLEHHHHHH | soluble
6 | AHHHHHHGSGKRVVIALGGNALQQRGQKGSYEEMMDNVRKTARQIAEIIARGYEVVITHGNGPQVGSLLLHMDAGQATYGIPAQPMDVAGAMSQGWIGYMIQQALKNELRKRGMEKKVVTIITQTIVDKNDPAFQNPTKPVGPFYDEETAKRLAREKGWIVKEDSGRGWRRVVPSPDPKGHVEAETIKKLVERGVIVIASGGGGVPVILEDGEIKGVEAVIDKDLAGEKLAEEVNADIFMILTDVNGAALYYGTEKEQWLREVKVEELRKYYEEGHFKAGSMGPKVLAAIRFIEWGGERAIIAHLEKAVEALEGKTGTQVLP | soluble
7 | MGSDKIHHHHHHMSYVAVKGGSTAIRAAHRLVRKRMRGDPDAPEITPRQICEQMHLGVDRVMAEASLYDEDLAARAMLQAQGDMIEAIFLLRAYRATLTRFLDSTPLAMDTMRVQRRISAAFKELPGGQQLGQTYDYSHRLFGYFDRLETKSDIESGKTEVPPEPMTSVMDLLEKEGLMELAAACEPPAENMQQDITRHPLLFPATRAQRLQSLARGDEGFLLSMAYSTQRGYGQNHPFIAELRMGDVTVEITPPELGFPIEIGTITVTECQMINQFQARSPEEAAFTRGYGLVFGHSERKAIAMALVDRALRAGELGEEALSPAQNEQFVLSHCDNVETTGFVEHLKLPHYVDFQSEIQTLRHLHKTAAKDGADRV | not soluble
8 | MSLRLKVSFQAMESTVPLNYNYFLSSFIYKRLASQNENFARFLHEKGYGKRFKFFTFSQLFFENSRVSGERIFIFPGKGWWYISSPVVEFVRYMFSSLSEDPVIRVGKTEFIVKSIDIENSLPDQSEYHFVMLSPLVVSVPEENNGKLYHRYLHPGEEEFYEVFRKNLMKKYRAFYGKDPEGTVEVIPDWDYIKSRHRITKRIKLKNAFVRAVVFPFKIRGEKKLVEIGYEAGFGEKNSMGFGMVALKKYEREGHHHHHH | soluble
9 | MAAEKTLRTCEKGHEYYKSSDCPTCPTCEKERTPQEGFLSLLSAPARRALEHHGIHTVEELSKYSEKEILKLHGMGPASLPKLRKALEESGLSFK | not soluble
